Experimental data as given in paper PMC10397247.

Key:
4H278-AA = molecular target: T1, 4H278-AA; assay: two-hybrid library CCmax; details: mean of both orientations;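 note: natural log of median RNA to DNA barcode read ratio; higher means stronger binding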
T1 chain: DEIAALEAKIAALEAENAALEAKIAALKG

4H775-AA = molecular target: T2, 4H775-AA; assay: two-hybrid library CCmax; details: mean of both orientations;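 note: natural log of median RNA to DNA barcode read ratio; higher means stronger binding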
T2 chain: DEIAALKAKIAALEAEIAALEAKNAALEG

4H2758-AA = molecular target: T3, 4H2758-AA; assay: two-hybrid library CCmax; details: mean of both orientations;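 note: natural log of median RNA to DNA barcode read ratio; higher means stronger binding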
T3 chain: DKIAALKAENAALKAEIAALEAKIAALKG

4H3625-AA = molecular target: T4, 4H3625-AA; assay: two-hybrid library CCmax; details: mean of both orientations;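 note: natural log of median RNA to DNA barcode read ratio; higher means stronger binding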
T4 chain: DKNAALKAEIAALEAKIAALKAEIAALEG

4H233-AA = molecular target: T5, 4H233-AA; assay: two-hybrid library CCmax; details: mean of both orientations;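 note: natural log of median RNA to DNA barcode read ratio; higher means stronger binding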
T5 chain: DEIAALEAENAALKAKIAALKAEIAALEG

4H510-AA = molecular target: T6, 4H510-AA; assay: two-hybrid library CCmax; details: mean of both orientations;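 note: natural log of median RNA to DNA barcode read ratio; higher means stronger binding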
T6 chain: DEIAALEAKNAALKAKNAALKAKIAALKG

4H1985-AA = molecular target: T7, 4H1985-AA; assay: two-hybrid library CCmax; details: mean of both orientations
T7 chain: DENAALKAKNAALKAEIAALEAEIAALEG

4H2687-AA = molecular target: T8, 4H2687-AA; assay: two-hybrid library CCmax; details: mean of both orientations
T8 chain: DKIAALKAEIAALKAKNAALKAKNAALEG

4H390-AA = molecular target: T9, 4H390-AA; assay: two-hybrid library CCmax; details: mean of both orientations
T9 chain: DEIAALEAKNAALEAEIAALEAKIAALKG

4H816-AA = molecular target: T10, 4H816-AA; assay: two-hybrid library CCmax; details: mean of both orientations
T10 chain: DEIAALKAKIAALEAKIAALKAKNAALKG

4H2873-AA = molecular target: T11, 4H2873-AA; assay: two-hybrid library CCmax; details: mean of both orientations
T11 chain: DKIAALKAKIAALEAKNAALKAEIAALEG

4H1710-AA = molecular target: T12, 4H1710-AA; assay: two-hybrid library CCmax
T12 chain: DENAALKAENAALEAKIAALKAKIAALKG

4H2646-AA = molecular target: T13, 4H2646-AA; assay: two-hybrid library CCmax; details: mean of both orientations
T13 chain: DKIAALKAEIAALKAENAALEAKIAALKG

4H2512-AA = molecular target: T14, 4H2512-AA; assay: two-hybrid library CCmax; details: mean of both orientations
T14 chain: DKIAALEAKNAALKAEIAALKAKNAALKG

4H2705-AA = molecular target: T15, 4H2705-AA; assay: two-hybrid library CCmax; details: mean of both orientations
T15 chain: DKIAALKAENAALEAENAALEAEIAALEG

4H3134-AA = molecular target: T16, 4H3134-AA; assay: two-hybrid library CCmax; details: mean of both orientations
T16 chain: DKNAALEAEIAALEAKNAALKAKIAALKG

4H87-AA = molecular target: T17, 4H87-AA; assay: two-hybrid library CCmax; details: mean of both orientations
T17 chain: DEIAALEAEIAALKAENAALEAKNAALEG

4H3409-AA = molecular target: T18, 4H3409-AA; assay: two-hybrid library CCmax; details: mean of both orientations
T18 chain: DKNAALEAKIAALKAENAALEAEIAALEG

4H2187-AA = molecular target: T19, 4H2187-AA; assay: two-hybrid library CCmax
T19 chain: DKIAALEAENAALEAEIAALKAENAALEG

4H2985-AA = molecular target: T20, 4H2985-AA; assay: two-hybrid library CCmax; details: mean of both orientations
T20 chain: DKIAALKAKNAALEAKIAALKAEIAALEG

4H3940-AA = molecular target: T21, 4H3940-AA; assay: two-hybrid library CCmax; details: mean of both orientations
T21 chain: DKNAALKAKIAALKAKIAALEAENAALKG

4H906-bA = molecular target: T22, 4H906-bA; assay: two-hybrid library CCNG1
T22 chain: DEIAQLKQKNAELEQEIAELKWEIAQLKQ

4H953-bN = molecular target: T23, 4H953-bN; assay: two-hybrid library CCNG1
T23 chain: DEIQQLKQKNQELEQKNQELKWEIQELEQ

4H584-bA = molecular target: T24, 4H584-bA; assay: two-hybrid library CCNG1
T24 chain: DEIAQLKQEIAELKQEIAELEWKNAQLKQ

4H850-bA = molecular target: T25, 4H850-bA; assay: two-hybrid library CCNG1
T25 chain: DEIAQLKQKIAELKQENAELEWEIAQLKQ

4H570-bA = molecular target: T26, 4H570-bA; assay: two-hybrid library CCNG1
T26 chain: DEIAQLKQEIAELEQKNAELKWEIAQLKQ

4H619-bA = molecular target: T27, 4H619-bA; assay: two-hybrid library CCNG1
T27 chain: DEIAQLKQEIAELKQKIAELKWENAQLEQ

O11 = molecular target: T28, O11; assay: two-hybrid library CCNG1
T28 chain: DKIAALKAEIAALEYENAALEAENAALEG

B1: 4H1710-AA (peptide)
chain: DENAALKAENAALEAKIAALKAKIAALKG
4H278-AA
  interaction score: -0.799
4H775-AA
  interaction score: -0.259
4H2758-AA
  interaction score: 1.82
4H3625-AA
  interaction score: -0.181
4H233-AA
  interaction score: 1.63
4H510-AA
  interaction score: -0.836
4H1985-AA
  interaction score: 2.15
4H2687-AA
  interaction score: -1.29
4H390-AA
  interaction score: 1.21
4H816-AA
  interaction score: -0.912
4H2873-AA
  interaction score: -0.937
4H1710-AA
  interaction score: -0.109
4H2646-AA
  interaction score: -1.37
4H2512-AA
  interaction score: -0.967
4H2705-AA
  interaction score: -0.626
4H3134-AA
  interaction score: -0.882
4H87-AA
  interaction score: -1.16
4H3409-AA
  interaction score: -0.675
4H2187-AA
  interaction score: -0.907
4H2985-AA
  interaction score: 0.52
4H3940-AA
  interaction score: -0.657

B2: 4H570-bA (peptide)
chain: DEIAQLKQEIAELEQKNAELKWEIAQLKQ
4H906-bA
  interaction score: 0.277
4H953-bN
  interaction score: -0.0403
4H584-bA
  interaction score: -1.33
4H850-bA
  interaction score: 1.98
4H570-bA
  interaction score: -0.223
4H619-bA
  interaction score: -1.3
O11
  interaction score: -0.882
